Tests used:
[1] = biological target: T1, MORF WH1 (Homo sapiens, UniProt Q8WYB5 5-84); test: EMSA
T1 sequence: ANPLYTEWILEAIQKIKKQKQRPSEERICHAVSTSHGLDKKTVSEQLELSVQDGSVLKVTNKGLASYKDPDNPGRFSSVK

[2] = biological target: MORF WH1;p300 TAZ2 (Homo sapiens;Homo sapiens?, UniProt Q8WYB5;Q09472 5-84;1722-1812, |); test: NMR
[3] = biological target: T2, MOZ WH1 (Homo sapiens, UniProt Q92794 2-86); test: NMR
T2 sequence: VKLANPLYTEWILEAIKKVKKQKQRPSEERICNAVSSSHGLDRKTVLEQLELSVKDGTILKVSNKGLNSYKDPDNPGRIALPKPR

Measured: binding result

Sequence of MORF WH1;p300 TAZ2 (Q09472 1722-1812, one chain of several): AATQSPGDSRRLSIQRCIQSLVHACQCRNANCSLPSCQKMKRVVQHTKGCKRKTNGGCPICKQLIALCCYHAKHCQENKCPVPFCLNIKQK

B1: CpG-DNA16 (dsDNA)
DNA 1: TAACCTGCGCACCATA
DNA 2: TATGGTGCGCAGGTTA
binds: [1] | [2] | [3]
